The values that follow are results of earlier work, collected in publication PMC2892843.

As a reminder, the Kd is the free concentration of one partner at which half of the binding sites on the other are occupied at equilibrium, for simple one-to-one binding.

The data set concerns the target NgR1 (UniProt Q9BZR6).
UniProt Q9BZR6, sequence (Q9BZR6 27-447): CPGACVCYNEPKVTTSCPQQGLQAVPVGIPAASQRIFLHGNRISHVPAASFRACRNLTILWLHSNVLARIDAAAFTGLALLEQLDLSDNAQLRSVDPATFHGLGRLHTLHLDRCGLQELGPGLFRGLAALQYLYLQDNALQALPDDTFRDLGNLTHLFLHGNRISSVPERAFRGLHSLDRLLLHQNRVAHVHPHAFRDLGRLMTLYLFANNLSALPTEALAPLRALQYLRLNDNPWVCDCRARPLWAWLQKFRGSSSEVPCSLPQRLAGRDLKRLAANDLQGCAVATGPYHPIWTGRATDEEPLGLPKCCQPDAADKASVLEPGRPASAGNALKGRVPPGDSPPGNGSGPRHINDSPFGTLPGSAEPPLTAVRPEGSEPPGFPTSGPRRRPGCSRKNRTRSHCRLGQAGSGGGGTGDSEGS

Take MAG (from UniProt P20916): the Kd is 10 nM.
